Laboratory results from publication PMC12400496 (Bioscience Reports, 2025).

What was measured:
[1] = target: CtcP (1-516), C-terminal truncation mutant lacking the helical hairpin (residues 1-516, P516G) (Kitasatospora aureofaciens); experiment: SEC; S-200 column in 40 mM Tris pH 8.0, 100 mM NaCl, 2 mM BME; position of monomeric PltM as marker
[2] = target: T1, CtcQ (Kitasatospora aureofaciens, UniProt S4S3E3); experiment: X-ray crystal structure (co-crystal); assay type: binding; conditions: co-crystallised with 5 mM NAD and 5 mM FAD, pH 7.5
T1 construct: full length; crystal: N-terminal His10 tag cut by PreScission protease; reductase assay: C-terminal His6 tag kept; homodimer; primers encode N-terminus MPPEPLS and C-terminus TLAAEG

[3] = target: T2, CtcP (Kitasatospora aureofaciens, UniProt A0A1E7MYN1); experiment: X-ray crystal structure (FAD soak); assay type: binding; conditions: chloride ion bound near isoalloxazine ring; soaked with 1 mM FAD, 20 mM NaCl, pH 7.5, 16 h
T2 construct: full length, 555 residues; N-terminal His10 tag cut by PreScission protease; expressed in E. coli BL21(DE3); homodimer; primers encode N-terminus MTDTTAD and C-terminus AMRVKP
T2 sequence (A0A1E7MYN1 whole entry): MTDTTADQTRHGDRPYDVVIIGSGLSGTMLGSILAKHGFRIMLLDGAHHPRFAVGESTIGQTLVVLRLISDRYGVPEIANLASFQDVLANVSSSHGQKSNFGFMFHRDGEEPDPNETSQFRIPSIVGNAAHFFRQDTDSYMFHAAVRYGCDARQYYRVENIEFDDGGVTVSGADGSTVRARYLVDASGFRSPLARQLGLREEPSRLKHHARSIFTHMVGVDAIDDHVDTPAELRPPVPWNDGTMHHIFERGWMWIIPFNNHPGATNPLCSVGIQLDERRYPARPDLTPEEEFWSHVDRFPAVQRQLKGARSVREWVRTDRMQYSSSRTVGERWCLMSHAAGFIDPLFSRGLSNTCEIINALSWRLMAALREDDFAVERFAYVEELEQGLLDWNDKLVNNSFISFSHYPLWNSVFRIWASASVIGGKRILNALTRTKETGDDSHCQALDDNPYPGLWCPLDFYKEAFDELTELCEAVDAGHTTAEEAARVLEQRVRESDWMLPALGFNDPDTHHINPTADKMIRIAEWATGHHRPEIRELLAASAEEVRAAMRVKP

[4] = target: T1, CtcQ; experiment: NADH oxidation, absorbance at […] nm; assay type: biochemical; conditions: 0.1 mM FMN, 1 mM NADH, 1.7 uM CtcQ (C-terminal His6), 20 mM HEPES pH 7.5
[5] = target: halogenase CtcP from Kitasatospora aureofaciens, full-length (Kitasatospora aureofaciens); experiment: crystal structure; CtcP in complex with PEG and sulfate; hanging drops, 100 mM HEPES pH 7.0, 1.6 M ammonium sulfate, 2% PEG 400, 21 °C
[6] = target: halogenase CtcP from Kitasatospora aureofaciens, full-length (Kitasatospora aureofaciens); experiment: crystal structure; CtcP in complex with FAD and Cl-; crystals from 0.1 M HEPES pH 7.5, 26% PEG 4000, 0.2 M Li2SO4, 21 °C, soaked with 1 mM FAD for 16 h
[7] = target: halogenase CtcP from Kitasatospora aureofaciens, full-length (Kitasatospora aureofaciens); experiment: SEC; S-200 column in 40 mM Tris pH 8.0, 100 mM NaCl, 2 mM BME; position of monomeric PltM as marker
[8] = target: the molecule itself; experiment: crystal structure; CtcQ in complex with FAD and NAD; hanging drops, 0.1 M Tris pH 7.5, 0.6 M KH2PO4, 0.6 M NaH2PO4, 21 °C, 5 mM NAD and 5 mM FAD

Question: For “CtcP (1-516), C-terminal truncation mutant lacking the helical hairpin (residues 1-516, P516G) (domain or fragment)”, which stoichiometry N [1] is on record?
Answer: The stoichiometry N was 2.

Question: Which results are given for `Cc1cc2nc3c(=O)[nH]c(=O)nc-3n(C[C@H](O)[C@H](O)[C@H](O)COP(=O)(O)OP(=O)(O)OC[C@H]3O[C@@H](n4cnc5c(N)ncnc54)[C@H](O)[C@@H]3O)c2cc1C` [FAD]?
Answer: X-ray crystal structure (co-crystal) ([2]; flavin subsite, second FAD also in the NAD subsite of most active sites): determined the crystal structure of CtcQ in complex with FAD and NAD; X-ray crystal structure (FAD soak) [3]: We obtained crystals of the CtcP-FAD complex by soaking FAD into the CtcP crystals

Question: For `NC(=O)c1ccc[n+]([C@@H]2O[C@H](COP(=O)(O)OP(=O)(O)OC[C@H]3O[C@@H](n4cnc5c(N)ncnc54)[C@H](O)[C@@H]3O)[C@@H](O)[C@H]2O)c1` [NAD], which “X-ray crystal structure (co-crystal)” value ([2]; U-shaped, stacked on FAD, text also calls the bound molecule NADH) is on record?
Answer: The value was “determined the crystal structure of CtcQ in complex with FAD and NAD”.

Question: `Cc1cc2nc3c(=O)[nH]c(=O)nc-3n(C[C@H](O)[C@H](O)[C@H](O)COP(=O)(O)O)c2cc1C` [FMN] was tested. Which “NADH oxidation, absorbance at 340 nm” value [4] did it give?
Answer: Its value is “CtcQ, which was highly active with either FAD or FMN as a substrate”.

Question: With “halogenase CtcP from Kitasatospora aureofaciens, full-length (enzyme)” as the molecule, how does the stoichiometry N [5] read?
Answer: Its stoichiometry N is 2.

Question: What about the stoichiometry N [6] of the same molecule?
Answer: Its stoichiometry N is 2.

Question: And the stoichiometry N [7]?
Answer: The stoichiometry N was 2.

B1: FAD reductase CtcQ from Kitasatospora aureofaciens (N-terminal tag removed) (enzyme, UniProt S4S3E3 1-191, looked up)
chain: MPPEPLSLPLDLAPGLVDGDTFLSIMGALPTGVTVVTTLGPDGEPYGLTCSAACSVSKAPPLLLVCINRDSRVLKALLERGEFAVNVLRGGGESTSARFAAPVDDRFRDVRWEPGSAGGVPVMSADVVAHAECRVAAALDAGDHTIVIGAVVAGGPRPEVPSPLMYWRRSYARWPVEEDPRTAALTLAAEG
notes: a second construct with a C-terminal His6 tag (pET22b) was used only for the reductase activity assay; also called flavin reductase CtcQ; source: E. coli BL21(DE3), purified (Ni2+-chelating chromatography, tag cleavage, S-200 size exclusion); not shown: His10, N-terminal, cleaved
Question: B1 was tested. Which “stoichiometry N” value [8] did it give?
Answer: Its value is 2.
